Test results reported in patent US20230117827A1, “COMPOSITION COMPRISING A FLUOROPHORE LABELLED UPAR-TARGETING PEPTIDE CONJUGATE” (FLUOGUIDE A/S, priority 2020, published 2023).

Experiments:
Type in all cases: physicochemical
[1] = Solubilization of composition 1 judged by absorbance and emission spectra
Experimental: A composition comprising the fluorophore labelled receptor-targeting peptide conjugate ICG-Glu-Glu-AE105 (called composition 1 below) is soluble in DMSO in concentrations up to 20 mg/ml with a peak spectral absorption at 800 nm similar to indocyanine green (ICG) currently used in the clinic for visual assessment of vessels, blood flow and related tissue perfusion, fig. A.
An aqueous formulation of composition 1 of 1.0 mg/ml has been developed according to the present invention, using excipients suitable for pharmaceutical formulation development.
A. Excitation was conducted at 775 nm.
Further Explanation of the Figs. A-D A. Absorbance and emission spectrum of FG001 dissolved in DMSO and PBS at 1.0 mg/ml. Excitation wavelength: 775 nm. Analytical samples for absorbance measurement were further diluted 200-fold and 400-1000-fold for emission spectra. B. Absorbance spectrum of FG001 dissolved in 1) 10 mM sodium phosphate, 45 mg/ml mannitol, pH 7.4, 2) 10 mM sodium phosphate, 45 mg/ml mannitol, 1% Polysorbate 20, pH 7.4 and 3) PBS, 0.2 g/ml HBC. Analytical samples for absorbance measurement were further diluted 200-fold and 400-1000-fold for emission spectra C. […] Excitation wavelength: 775 nm. Analytical samples for absorbance measurement were further diluted 200-fold and 400-1000-fold for emission spectra

[2] = Long term storage stability of lyophilizate, purity by RP-HPLC; details: for Purity, main peak following storage at 5° C. / Purity, main peak following storage at 25° C./60% RH / Purity, main peak following storage at 40° C./75% RH: 780 nm
Experimental: (§1) The long term stability of composition 1 at a concentration of 1.0 mg/ml was evaluated as a lyophilizate in one formulation comprising 10 mM sodium phosphate, 26 mg/ml mannitol, 9.0 mg/ml glycine, 0.025% Polysorbate 20, pH 7.4 Composition 1 was weighed into the formulation buffer and pH was adjusted to 7.4 using sodium hydroxide or hydrochloric acid. The bulk formulation was sterile filtered through suitable sterile filters and filled into 6R vials. The vials were placed with stoppers in a lyophilizer and lyophilized using a standard program. Following lyophilization all vials were capped, visual inspected and stored protected from light at 5° C., 25° C./60% RH or 40° C./75% RH for up to 9 months
(§2) At the selected timepoint, a vial is removed from the stability chamber for visual inspection of the lyophilizate and water content determination. Another vial is reconstituted with water for injection prior to analyzing the corresponding liquid formulation for purity, pH and visual appearance.
RP-HPLC to detect purity of reconstituted composition 1: Mobile phase A was composed of purified water/acetonitrile (80/20 v/v) with 5 mM ammonium acetate and mobile phase B was composed of purified water/acetonitrile (10/90 v/v) with 5 mM ammonium acetate. A Waters XBridge BEH Peptide, 3.5 μm, 130Å, 4.6×150 mm column was used. Flow rate was set to 1.0 mL/min,detection was at a wavelength of 780 nm, the column running temperature was 45° C. The sample cooler temperature was set at 5° C. and the sample injection load was 10 μg.

[3] = Long term storage stability, water content of lyophilizate by Karl Fisher titration
Experimental: as §1, §2
The water content of the lyophilizate was determined by Karl Fisher titration according to Ph. Eur. 2.5.32.

[4] = Long term storage stability, visual inspection and pH; details: for pH: reconstituted
Experimental: as §1, §2

[5] = Example 4 lyophilizate, 0 months
[6] = Example 4 lyophilizate, 1 months
[7] = Example 4 lyophilizate, 3 months
[8] = Example 4 lyophilizate, 6 months
[9] = Example 4 lyophilizate, 9 months
[10] = storage at 25° C./60% RH, 0 months
[11] = storage at 25° C./60% RH, 1 months
[12] = storage at 25° C./60% RH, 3 months
[13] = storage at 25° C./60% RH, 6 months
[14] = storage at 25° C./60% RH, 9 months

CC(C)C[C@H](NC(=O)[C@H](Cc1ccc(O)cc1)NC(=O)C(CCCNC(=N)N)NC(=O)C(CO)NC(=O)C(Cc1ccccc1)NC(=O)[C@H](CC1CCCCC1)NC(=O)C(CC(=O)O)NC(=O)C(CCC(=O)O)NC(=O)C(CCC(=O)O)NC(=O)CCCCCN1\C(=C/C=C/C=C/C=C/C2=[N+](CCCCS(=O)(=O)[O-])c3ccc4ccccc4c3C2(C)C)C(C)(C)c2c1ccc1ccccc21)C(=O)N[C@@H](Cc1c[nH]c2ccccc12)C(=O)N[C@@H](CO)C(=O)O (stereo partly drawn) [composition 1, ICG-Glu-Glu-AE105]
peak absorption ([1]; 10 mM sodium phosphate, 45 mg/ml mannitol, pH 7.4): shifted towards the peak absorption at 800 nm | solubility ([1]; DMSO, read-out: soluble in DMSO in concentrations): ≤ 20 mg/mL | peak spectral absorption ([1]; in DMSO): 800 nm | spectral absorption in the range from 700 nm to 825 nm ([1]; phosphate buffer saline, 1.0 mg/ml): clear double peak | emission spectrum ([1]; phosphate buffer saline, 1.0 mg/ml, excitation 775 nm): significantly lower fluorescent peak at 800 nm | solubility in phosphate buffer saline ([1]; tested concentration 1.0 mg/ml): not soluble | Purity, main peak following storage at 5° C. ([2]; Example 4 lyophilizate (mannitol/glycine/0.025% Polysorbate 20), 0 months): 96.6 area % | Purity, main peak following storage at 25° C./60% RH [2, 5]: 96.6 area % | Purity, main peak following storage at 40° C./75% RH [2, 5]: 96.6 area % | Purity, main peak following storage at 5° C. [2, 6]: 96.2 area % | Purity, main peak following storage at 25° C./60% RH [2, 6]: 96.2 area % | Purity, main peak following storage at 40° C./75% RH [2, 6]: 96.0 area % | Purity, main peak following storage at 5° C. [2, 7]: 96.5 area % | Purity, main peak following storage at 25° C./60% RH [2, 7]: 96.6 area % | Purity, main peak following storage at 40° C./75% RH [2, 7]: 95.9 area % | Purity, main peak following storage at 5° C. [2, 8]: 96.3 area % | Purity, main peak following storage at 25° C./60% RH [2, 8]: 95.6 area % | Purity, main peak following storage at 40° C./75% RH [2, 8]: 93.9 area % | Purity, main peak following storage at 5° C. [2, 9]: 96.2 area % | Purity, main peak following storage at 25° C./60% RH [2, 9]: 96.2 area % | time shown to be stable, judged by the purity determination ([2]; selected formulation, storage conditions 5° C. and 25° C./60% RH): up to 9 months | residual water content ([3]; following 9 months storage at 25° C./60% RH): around 2% | Residual water ([3]; storage at 5° C., 0 months): 1.0% | Residual water ([3]; storage at 5° C., 1 months): 1.2% | Residual water ([3]; storage at 5° C., 3 months): 1.8% | Residual water ([3]; storage at 5° C., 6 months): 1.7% | Residual water ([3]; storage at 5° C., 9 months): 1.6% | Residual water [3, 10]: 1.0% | Residual water [3, 11]: 1.8% | Residual water [3, 12]: 1.7% | Residual water [3, 13]: 1.7% | Residual water [3, 14]: 1.9% | pH ([4]; storage at 5° C., 0 months): 7.4 | pH ([4]; storage at 5° C., 1 months): 7.3 | pH ([4]; storage at 5° C., 3 months): 7.4 | pH ([4]; storage at 5° C., 6 months): 7.3 | pH ([4]; storage at 5° C., 9 months): 7.4 | pH [4, 10]: 7.4 | pH [4, 11]: 7.3 | pH [4, 12]: 7.4 | pH [4, 13]: 7.3 | pH [4, 14]: 7.4 | pH, appearance of the lyophilizate and clarity of reconstituted liquid formulation ([4]; up to 9 months storage): remains unchaged
